Test results as given in publication PMC9484798.

Target: U6, a member of the malonate semialdehyde decarboxylase (MSAD)-like subgroup of the tautomerase superfamily
Experiment: native MS

- stoichiometry N: 3
Substance: U6, a member of the malonate semialdehyde decarboxylase (MSAD)-like subgroup of the tautomerase superfamily (enzyme)
